Results as given in patent US20220073643A1.

Biological target: Claudin18.2-His protein (human)
Test: indirect ELISA on coated Claudin18.2-His

Row | EC50 [µg/mL] | Binder
1 | 0.0509 | 232F1E4 (antibody, V domains shown) VH: QVQLKESGPGLVAPSQSLSITCTVSGFALTTYGVSWVRQPPGKGLEWLGVIWGDGSTHYHSALISRLSIRKDNSKSQVFLKLNSLQTDDTATYYCAKPGRGNAMDYWGQGTSVTVSS VL: DIVMSQSPSSLTVTAGEKVTMSCKSSQSLLNSGNQKNYLTWYQQKPGQSPKLLIYWASTRESGVPDRFTGSGSGTDFTLTISSMQAEDLAVYYCQNDYIYPLTFGAGTMLELK
2 | 0.0405 | 234B9D4 (antibody, V domains shown) VH: EIQLQQSGPDLMKPGSSVKISCTASGYSFTSYYIHWVKQSHGKTLEWIGYIDPFNGGTRYNQKFEGKAALTVDKSSTTAYMHLTSLTSDDSAVYYCASLRFFTYWGQGTLVTVSA VL: DIVMTQSPSSLTVTAGEKVTMTCKSSQSLLNSGNQENYLTWYQQKPGQPPKLLISRASTRQSGVPDRFTGSGSGTDFTLTISSVQAEDLAVYYCQNDYSYPLTFGAGTKLELK
3 | 0.0109 | 186F7E10 (antibody, V domains shown) VH: EVMLVESGGGLVKPGGSLKLSCAASRFTLNSYAMSWIRQTPEKKLEWVATITSGVSHTYYFDSVKGRFTISRDTAKNTLNLQMNSLRSEDTAVYYCARLYYGNSLDYWGQGTSVTVSS VL: DIVMTQSPSSLTVTAGEKVTVSCKSSQSLLNSGNQKNYLTWYQQKPGQPPKLLIYWASTRESGVPDRFTGSGSGTDFTLTISSVQSEDLAVYYCQNNYIYPLTFGAGTTLELK
4 | 0.00969 | 248E6A7 (antibody, V domains shown) VH: QAYLQQSGAELVRSGASVKMSCRASGYTFTSHNMHWVKQTPGQGLEWIGYIYPGNGNTYYNQKFKVKATLTADTSSNTAYMQINSLTSEDSAVYFCVRDYYGNSFVYWGQGTLVTVSA VL: DVVMTQSPSSLTEKTGEKVTMTCKSSQSLLNSGNQKNYLAWYQQKPGQPPKLLIYWASTRESGVPDRFIGSGSGTDFTLTISSLQTEDLAVYYCQNNYMYPFTFGAGTKLELK
5 | 0.0413 | 231C11E9 (antibody, V domains shown) VH: EVMLVESGGGLVKPGGSLKLSCAASGFTFNNYVMCWVRQTPEKRLEWVATISSGNFYTYYPDSVKGRFTISRDNAKNTLYLQMSSLRSEDTAIYYCASLGRGNALDNWGQGTSVTVSS VL: DIVMTQSPASLTVTAKEKVTMSCRSSQSLLNSGNQKNYLTWYQQKPGQPPKLLIYWASTRESGVPDRFTGSGSGTDFTLTISSVQAEDLAVYYCQNDYSYPFTFGSGTKLEIK
6 | 0.0145 | 240A8E7 (antibody, V domains shown) VH: QAYLQQSGAELVRSGASVKMSCKASGYTFTNYNIHWVKQTPGQGLEWIGYIYPGNGDNYYNQKFKGKATLTADTSSSTAYMQISSLTSEDSAVYFCARDYYGNSFAYWGQGTLVTVSA VL: DVVMTQSPSSLTVTAGEKVTMNCKSSQSLLNSGNQKNYLTWYQQKPGQPPKMLIYWASTRESGVPDRFTGSGSGTDFTLTISSVQAEDLAIYYCQNDYYYPFTFGAGTKLELK
7 | 0.0193 | 242F5H2 (antibody, V domains shown) VH: EVMLVESGGGLVKPGGSLKLSCAASGFTFSSYTVSWVRQTPEKRLEWVATSIVGSTYTYFPDSVKGRFTISRDFAKNTLFLQMSSLRSEDTAMYYCSRLGRGNAMDYWGQGTSVSVSS VL: DIVMTQSPSSLTVTAGEKVTLNCRSSQSLLNSGNQKNYLTWYQQKPGQPPKLLIYWASTRESGVPDRFTGSGSGTDFTLTISSVQADDLAVYYCQNGYSYPFTFGSGTKLEIK
8 | 0.0268 | 234A10F7 (antibody, V domains shown) VH: QVQLQQSGAELVKPGASVKLSCKASGYTFTSFGINWLRQRPEQGLEWIGWIFPGDGNSKYNENFKGKATLTTDKSSSTAYMQLTRLTSEDSAVYFCARFYYGNSFAYWGQGTLVTVSA VL: DIVMTQSPSSLTVTTGQKVTMSCKSSQSLLNSGNQKNYLTWYQQKPGQPPKLLIYWAATRESGVPDRFTGSGSGTDFTLTISSVQAEDLAVYYCQNDYFYPFTFGAGTKLELK
9 | 0.0221 | 241H10A1 (antibody, V domains shown) VH: QVQLQQSGAELVKPGASVKLSCKASGYTFTSFGINWLRQRPEQGLEWIGWIFPGDGNSKYNENFKGKATLTTDKSSSTAYMQVTRLTSEDSAVYFCARFYYGNSFANWGQGTLVTVSA VL: DIVMTQSPSSLTVTAGEKVTMSCKSSQSLLNSGNQKNYLTWYQQKPGQPPKLLIYWAATRESGVPDRFTGSGSGTDFTLTISSVQAEDLAVYYCQNDYFYPFTFGGGTKLELK
10 | 0.141 | 246B5F2 (antibody, IgM, V domains shown) VH: EVMLVESGGGLMKPGGSLKLSCAASEFTFSNYAMSWVRQTPEKRLEWVATISSGRSSTYYPDSVKGRFTISRDNAKNTLYLQMSSLRSEDTAMYYCAGLGRGNAMEYWGQGTSVTVSS VL: DIVMTQSPSSLTVTAGEKVTLSCKSSQSLLNSGNQKNYLTWYQQKPGQPPKLLIYWASTRESGVPDRFTGSGSGTDFILTINSVQAEDLAVYYCQNAYSYPFTFGSGTKLEIK
11 | 0.0394 | 231H4G11 (antibody, V domains shown) VH: QAYLQQSGAELVRSGASVKMSCKASGYTFTSHNIHWVKQTPGQGLEWIGYISPGNGYTNYNQKFRGKATLTADTSSSTAYMQISSLTSEDSAVYFCTRDYYGNSFAYWGQGTLVTVSA VL: DIVMTQSPSSLTEKAGERVSMSCKSSQSLFNSGSQKNYLTWYQQKPGQPPKLLIYWASTRESGVPDRFSGSGSGTDFTLTISSVQAEDLAVYYCQNNYWFPFTFGAGTKLELK
12 | 0.0346 | 243F6D2 (antibody, V domains shown) VH: QAYLQQSGAELVRSGASVKMSCRASGYTFTSHNMHWVKQTPGQGLEWIGYIYPGNGGTYYNQKFKGKATLTADTSSSTAYMQISSLTSEDSAVYFCARDYYGNSFVYWGQGTLVTVSA VL: DVVMTQSPSSLTEKTGEKVSMSCKSSQSLLNSGNQKNYLTWYQQKPGQPPKLLIYWASTRESGVPDRFTGSGSGTDFTLTISSLQTEDLAVYYCQNNYRYPFTFGAGTKLELK
13 | 0.0164 | 242H12D6 (antibody, V domains shown) VH: QAYLQQSGAELVRSGASVKMSCKASGYTFTSHNMHWVKQTPGQGLEWIGYIYPGNGGTNYNQKFKGKATLTADTSSSTAYMQINSLTSEDSAVYFCTRDYYGNSFAYWGQGTLVTVSA VL: DIVMTQSPSSLTEKAGERVSMSCKSSQSLFNSGNQKNYLTWYQQKPGQPPKLLIYWASTRESGVPDRFTGSGSGTDFTLTISSVQAEDLAVYYCQNDYRYPFTFGAGTKLELK
14 | 0.0355 | 235A10C9 (antibody, V domains shown) VH: QAYLQQSGAELVRSGASVKMSCKASGYTFASHNMHWVKQTPGQGLEWIGYIYPGNSGTKYNQKFTGKATLTADTSSSTAYMQITSLTSEDSAVYFCARDYYGNSFAYWGQGTLVTVSA VL: DIVMTQSPSSLTEKAGEKVSMRCKSSQSLLNSGNQKNYLTWYQQKPGQPPKLLIYWASTRESGVPDRFTGSGSGTDFTLTISSVQADDLAVYYCQNDYMFPFTFGAGTKLELK
15 | 0.0259 | 232C5E3 (antibody, V domains shown) VH: QAYLQQSGAELVRSGASVKMSCKASGYTFTSHNIHWIKQTPGKGLEWIGYIYPGNGGTNYNQKFKAKATLTADTSSSTAYMQISSLTSEDSAVYFCARDYYGNSFAYWGQGTLVTVSA VL: DIMMTQSPSSLTETAGEKVSMSCKSSQSLLNSGNQKNYLTWYQQKPGQPPKLLIYWASTRESGVPDRFSGSGSGTDFTLTISSVQAEDLAVYYCQNGYRFPFTFGAGTKLELK
16 | 0.0125 | 243B4F2 (antibody, V domains shown) VH: QAYLQQSGAELVRSGASVKMSCKASGYTFTSHNLHWVKQTPGQGLEWIGYIYPGNGNTNYNQKFKGKATLTADTSSSTAYMQISSLTSEDSAVYFCTRDYYGNSFAYWGQGTLVTVSA VL: DIVMTQSPSSLTEKAGERVSMSCKSSQSLFNSGNQKNYLTWYQQKPGQPPKLLIYWASTRESGVPDRFTGSGSGTDFTLTISSVQAEDLAVYYCQNNYWFPFTFGAGTKLELK
17 | 0.0943 | 233D5E5 (antibody, V domains shown) VH: QAYLQQSGAELVRSGASVKMSCKASGYTFTSHNMHWVKQTPRQGLEWIGYIYPGNGDTNYNQKFKGKATLTADTSSSTAYMQISSLTSEDSAVYFCTRDYYGNSFAYWGQGTLVTVSA VL: DIVMTQSPSSLTEKAGERVSMSCKSSQSLFNSGNQKNYLTWYQQKPGQPPKLLIYWASTRESGVPDRFTGSGSGTDFTLTISSVQAEDLAVYYCQNAYWYPFTFGAGTKLELK
18 | 0.0387 | 234C9G5 (antibody, V domains shown) VH: QAYLQQSGAELVRSGASVKMSCKASGYAFTSHNMHWVKQTPGQGLEWIGYISPGNGYTNYNQKFRGKATLTADTSSSTAYMQIGSLTSEDSAVYFCTRDYYGNSFAYWGQGTLVTVSA VL: DIVMTQSPSSLTEKAGERVSMSCKSSQSLFNSGNQKNYLTWYQQKPGQPPKLLIYWASTRESGVPDRFTGSGSGTDFTLTISSVQAEDLAVYYCQNNYWFPFTFGAGTKLELK
19 | 0.105 | 234E1F12 (antibody, V domains shown) VH: QAYLQQSGAELVRSGASVKMSCKASGYTFTSHNMHWVKQTPRQGLEWIGYIYPGNGDTNYNQKFKGKATLTADTSSSTAYMQISSLTSEDSAVYFCTRDYYGNSFAYWGQGTLVTVSA VL: DIVMTQSPSSLTEKAGERVSMSCKSSQSLFNSGNQKNYLTWYQQKPGQPPKLLIYWASTRESGVPDRFTGSGSGTDFTLTISSVQAEDLAVYYCQNAYWYPFTFGAGTKLELK
20 | 0.00792 | 240D6F5 (antibody, V domains shown) VH: QAYLQQSGAELVRSGASVKMSCKASGYTFTSHNMHWVKQTPGQGLEWIGYIYPGNGGTNYNQKFKGKATLTADPSSSTAYMQINSLTSEDSAVYFCTRDYYGNSFAYWGQGTLVTVSA VL: DIVMTQSPSSLTEKAGERVSMSCKSSQSLFNSGNQKNYLTWYQQKPGQPPKLLIYWASTRESGVPDRFTGSGSGTDFTLTISSVQAEDLAVYYCQNDYRYPFTFGAGTKLELK
21 | 0.0305 | 232D7C8 (antibody, V domains shown) VH: QAYLQQSGAELVRSGASVKMSCKASGYTFTSHNMHWVKQTPGQGLEWIGYIYPGNGGTNYNQKFKGKATLTADTSSSTAYMQISSLTSEDSAVYFCARDYFGNSFAYWGQGTLVTVSA VL: DILMTQSPSSLTATAGEKVSMSCKSSQSLFNSGNQRNYLTWYQQRPGQPPKLLIYWASTRESGVPDRFTGSGSGTDFTLTISSVQAEDLAVYYCQNDYRYPFTFGAGTKLELK
22 | 0.0193 | 185F2G12 (antibody, V domains shown) VH: QAYLQQSGAELVRSGASVKMSCKASGYTFTSYNMHWVRQTPGQGLEWIGYIYPGNGGTNYSQKFKGKASLTADTSSTTAYMQISSLTSEDSAVYFCATGRGFAYWGQGTLVTVSA VL: DIVMTQSPSSLTVTAGEKVTLSCKSSQSLFNTGNQKNYLTWYQQKPGQPPKLLIFRASTRESGVPDRFTGSGFGTDFTLTISSVQAEDLAVYYCQNDFSYPLTFGAGTKLELK
